Test results: publication doi:10.1101/2022.11.20.517256 (bioRxiv, 2022)

Target: the molecule itself
Assay: cryo-EM structure

B1: Erwinia ligand-gated ion channel (ELIC), wild type (natural protein)
chain: APADNAADARPVDVSVSIFINKIYGVNTLEQTYKVDGYIVAQWTGKPRKTPGDKPLIVENTQIERWINNGLWVPALEFINVVGSPDTGNKRLMLFPDGRVIYNARFLGSFSNDMDFRLFPFDRQQFVLELEPFSYNNQQLRFSDIQVYTENIDNEEIDEWWIRKASTHISDIRYDHLSSVQPNQNEFSRITVRIDAVRNPSYYLWSFILPLGLIIAASWSVFWLESFSERLQTSFTLMLTVVAYAFYTSNILPRLPYTTVIDQMIIAGYGSIFAAILLIIFAHHRQAMGVEDDLLIQRCRLAFPLGFLAIGCVLVIRGITL
Question: Which “stoichiometry N” value does the source give for B1 here?
Answer: 5
